B1: ETS2 (parent)
chain: TSGKRYVYRFVCDLQNLLGFTPEE
B2: PPEF2 (parent)
chain: FIPSSHNDRDFLTRIFTEDRFAQD

Variants of: B1
Assay: protein stability index of a GFP-peptide fusion (GPS, HEK-293T) (PSI 1-6); higher = more stable
Details: c terminus: a fixed tail appended
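Note: lentivirally expressed fusions sorted by FACS into six bins by GFP to DsRed ratio, PSI derived from sequencing read proportions per bin multiplied by bin number.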

Protein stability index: each site, then its substitutions
T1: S 2.4, R 2.29, Q 1.94, C 1.7, N 1.82, H 2.12, I 2.6, W 2.1, Y 1.71, M 1.86, P 1.94, K 1.66, E 2.38, G 2.08
G3: I 2.11, K 1.7, D 3.19, E 1.78, H 2.83, F 2.33, C 1.81, A 2.96
S2: L 3, C 1.64, E 2.33, V 1.83, I 3.22, H 2.62, G 2.02, P 2.25, A 1.74, R 1.77, F 2.74, Q 1.85, W 4.44, D 2.89, N 3.49, M 2.6, K 2.29

Variants of: B2
Assay: as above
Details: c terminus: a fixed tail appended

Protein stability index: each site, then its substitutions
I15: A 1.61, F 2.2, E 2.44, T 2.45, L 1.56, K 2.77, Y 2.22, P 1.91, R 2.9, M 2.24, C 3.07, N 1.83, G 1.98, D 2.01, Q 2.19, W 2.66, H 2.4, S 1.84
L12: N 1.45, Q 1.82, H 2.33, Y 1.98, E 2.2, T 2.17, A 2.82, W 2.85, K 2.38, F 2.18, D 2.26, V 2.86, P 1.74, C 2.29, G 1.52, R 1.72, M 1.53, S 1.54, I 3.01
D24: F 2.83, S 2.93, K 1.99, M 1.94, H 3.06, C 1.75, P 1.73, G 2.13, I 2.99, R 2.19, Y 1.9, E 1.95, A 2.61, T 1.52, N 1.62, W 2.63, Q 1.27, V 2.79, L 2.2
R20: L 2.05, V 1.99, P 2.41, T 1.47, S 2.65, M 1.39, A 2.05, G 1.69, Q 2.15, K 2.11, F 2.24, N 2.07, Y 2.37, C 2.1, W 2.54, I 1.32, D 2.42, E 1.81, H 3.22
F21: E 1.81, A 1.59, T 1.75, H 1.87, S 1.65, L 2.27, W 2.09, V 1.64, R 1.75, N 2.54, D 2.52, M 1.87, I 1.74, P 2.02, K 1.84, C 1.81, G 1.92, Y 2.27, Q 1.98
D19: R 1.8, A 3.2, F 1.77, M 3.16, T 2.8, Q 1.68, N 1.57, I 2.76, L 1.96, G 2.46, E 2.32, V 2.14, C 2.12, H 1.54, S 2.51, W 1.99, K 2.44, Y 1.79, P 1.99
F16: N 2.12, V 2.6, E 2.02, T 2.59, D 2.18, I 1.83, L 1.91, G 1.92, P 2.96, S 1.72, M 1.84, Y 1.21, K 1.47, A 1.76, R 1.88, Q 2.06, C 2.48, H 1.69
T13: F 1.5, R 1.91, L 3.13, E 2, D 1.83, P 1.82, K 1.38, Y 2.65, H 1.6, I 2.21, C 2.75, G 2.42, Q 1.55, V 1.8, S 1.83, N 1.7, A 2.57
T17: R 1.73, Y 2.08, A 1.71, H 1.54, L 2.65, P 1.97, F 1.87, W 2.79, N 1.68, I 2.08, M 2.54, C 3.8, D 1.95, S 2.05, Q 1.79, K 3.08, E 2.19, V 1.85, G 2.7
F11: P 2.16, E 2.33, M 2.13, G 2.21, K 1.76, H 1.89, D 2.74, S 1.58, A 1.98, N 2.67, L 1.56, C 2.8, I 1.8, Q 2, V 2.01, R 1.99, T 1.7, W 1.93, Y 2.1
Q23: E 2.06, V 2.15, G 1.89, N 2.68, A 1.96, S 2.35, M 2.09, L 2.06, R 3.08, F 2.44, D 1.72, C 2.27, K 2.33, I 1.99, P 3.1, Y 2.84, H 2.18, W 2.55, T 3.01
A22: C 1.95, M 1.8, S 1.63, P 1.95, Q 2.15, Y 1.61, R 2.16, W 3.33, L 2, T 1.93, D 2.56, N 2.59, K 3.16, G 1.89, V 2.56, H 1.83, I 1.78, F 2.07, E 2.2
R14: K 1.55, H 2.04, E 2.34, N 2.12, A 1.58, D 2.5, W 2.5, F 2.7, Y 1.7, M 2.55, S 3.48, L 2, T 2.36, C 1.78, Q 1.93, I 2.61, G 1.95, P 2.81, V 3.04
R9: I 1.76, Q 1.53, G 2.01, W 2.3, V 2.2, N 1.76, S 1.98, M 2.3, T 1.74, F 2.21, K 2.48, Y 1.89, L 1.81, H 1.54, P 1.69
E18: Q 1.71, S 2.18, K 2.47, V 2.51, D 2.37, H 3.19, C 2.79, T 2.27, G 1.48, L 2.19, W 2.25, P 2.98, I 3.03, R 2.16, F 2.52, N 2.12, A 2.64, M 2.96, Y 1.54
D10: P 2.14, I 3.22, G 2.46, Q 2.77, H 2.8, C 2.41, T 2.54, V 3.75, M 1.87, Y 2.39, N 2.96, R 2.67, F 2.05, A 2.69, K 1.89, W 2.6, E 1.96, S 2.37

Reference: the supplement of paper PMC10567573
